Measurements: US20170119925

Tested on: T1, Gln-Pro-Gln-Gly-Leu-Ala-Lys (QPQGLAK) peptide crosslinker
T1 sequence: QPQGLAK

Work on “general collagenase from Clostridium histolyticum” yielded a kcat/Km (s^-1M^-1), digestion kinetics by HPLC of 32 s^-1M^-1.
